This is an account of results in patent publication US20240368565A1, “COMPLEMENTATION-BASED TAGS AND REPORTERS FOR DUAL-MODALITY LABELING” (Promega Corporation, priority 2023, published 2024).

What all share (experiment): biochemical
Assay type in all cases: binding

Assay [1] concerns the target HaloTag[22-297](M2F + D53G + K140E)-12xGly/Ser-LgBiT-3xGly/Ser-6xHis (Rhodococcus rhodochrous, UniProt P0A3G2, A155T/A167V/A172T/A224E/C128F/C176G/D73G/D78G/E257K/H272N/K175M/K195N/L47V/L88M/N227D/S58T/T264A/Y273L/Y87F).
For assay [2], the target named is HaloTag[22-297](M2F + K140E)-12xGly/Ser-LgBiT-3xGly/Ser-6xHis (Rhodococcus rhodochrous, UniProt P0A3G2, A155T/A167V/A172T/A224E/C128F/C176G/D78G/E257K/H272N/K175M/K195N/L47V/L88M/N227D/S58T/T264A/Y273L/Y87F). To be noted: biotinylated peptide on streptavidin probes, PBST, 25° C.
For the next assay, the target named is LgBiT-6xHis (Oplophorus gracilirostris, UniProt Q9GV45, A31E/A60N/A81I/D135N/F58L/F95D/G42A/G62A/G78A/G94A/G98A/H120P/I103V/I117V/I134L/K70R/L176M/L54V/L73R/L99Q/M102E/N171T/P142E/Q151K/Q38E/Q45L/V71I/Y165I).
[3] abbreviates: biotinylated peptide on streptavidin probes, PBST, 25° C.

The term Kd denotes the free concentration of one partner at which half of the binding sites on the other are occupied at equilibrium, for simple one-to-one binding.

Peptide text beside a SMILES is read from it. * marks the point of attachment. Biotin = O=C1N[C@H]2[C@H](CS[C@H]2CCCCC(=O)*)N1

Regarding `CC[C@H](C)[C@H](NC(=O)[C@H](CCCCN)NC(=O)[C@H](CCCCN)NC(=O)[C@H](Cc1ccccc1)NC(=O)[C@H](CC(C)C)NC(=O)[C@H](CCCNC(=N)N)NC(=O)[C@H](Cc1c[nH]c2ccccc12)NC(=O)CNC(=O)[C@H](CO)NC(=O)[C@@H](NC(=O)CNC(=O)[C@H](CO)NC(=O)CNC(=O)CNC(=O)CNC(=O)[C@H](CC(C)C)NC(=O)[C@@H](NC(=O)[C@H](CCC(=O)O)NC(=O)[C@@H](NC(=O)[C@H](Cc1ccc(O)cc1)NC(=O)[C@H](Cc1c[nH]cn1)NC(=O)[C@@H]1CCCN1C(=O)[C@H](CC(=O)O)NC(=O)[C@H](Cc1ccccc1)NC(=O)[C@@H]1CCCN1C(=O)[C@H](Cc1ccccc1)NC(=O)CNC(=O)[C@@H](NC(=O)CNC(=O)[C@H](CCCNC(=N)N)NC(=O)[C@H](CCC(=O)O)NC(=O)CCCC[C@@H]1SC[C@@H]2NC(=O)N[C@@H]21)[C@@H](C)O)C(C)C)C(C)C)C(C)C)C(=O)N[C@@H](CO)C(=O)O` [HaloTag[3-19](I2R)-4xGly/Ser-HiBiT] (Biotin-ERGTGFPFDPHYVEVLGGGSGVSGWRLFKKIS-OH), in assay [1], the Kd amounted to 0.323 nM.
In the case of “EIKTGFPFDPHYVKVLGGGSGVSVSGWRLFKKIS [HaloTag[3-19](G3K + E14K)-4xGS-VSHiBiT]”, in assay [2], the Koff result is recorded as “NA (dissociation that is too slow for the instrument to measure (limit 10^6 l/s))” and the Kon stood at 128000 M⁻¹ s⁻¹.
On to “EIGTGFPFRPHYVEVRGGGSGVSVSGWRLFKKIS [HaloTag[3-19](D9R + L16R)-4xGS-VSHiBiT]”, for which the Koff result (with LgBiT-6xHis (setting [3]); in assay [2]) was “NA (dissociation that is too slow for the instrument to measure (limit 10^6 l/s))” in each case. The results for the Kon (in the assay with LgBiT-6xHis (setting [3]); in assay [2]) were 64800 M⁻¹ s⁻¹ and 134000 M⁻¹ s⁻¹, respectively.
For “ERGTGFPFRPHYVEVLGGGSGVSVSGWRLFKKIS [HaloTag[3-19](I2R + D9R)-4xGS-VSHiBiT]”, in assay [2], the Koff entry is reported as “NA (dissociation that is too slow for the instrument to measure (limit 10^6 l/s))” and the Kon was 128000 M⁻¹ s⁻¹.
On the same counts, the results for “EIGTGFPFDPHYVKVLGGGSGVSVSGWRLFKKIS [HaloTag[3-19](E14K)-4xGly/Ser-VSHiBiT]” are “NA (dissociation that is too slow for the instrument to measure (limit 10^6 l/s))” and 108000 M⁻¹ s⁻¹.
For the compound “ERGTGFPFDPHYVEVLRGGSGVSVSGWRLFKKIS [HaloTag[3-19](I2R + G17R)-4xGS-VSHiBiT]”, in assay [2], the Koff entry is given as “NA (dissociation that is too slow for the instrument to measure (limit 10^6 l/s))” and the Kon is 93300 M⁻¹ s⁻¹.
For `CC[C@H](C)[C@H](NC(=O)[C@H](CCCCN)NC(=O)[C@H](CCCCN)NC(=O)[C@H](Cc1ccccc1)NC(=O)[C@H](CC(C)C)NC(=O)[C@H](CCCNC(=N)N)NC(=O)[C@H](Cc1c[nH]c2ccccc12)NC(=O)CNC(=O)[C@H](CO)NC(=O)[C@@H](NC(=O)[C@H](CO)NC(=O)[C@@H](NC(=O)CNC(=O)[C@H](CC(C)C)NC(=O)[C@@H](NC(=O)[C@H](CCC(=O)O)NC(=O)[C@@H](NC(=O)[C@H](Cc1ccc(O)cc1)NC(=O)[C@H](Cc1c[nH]cn1)NC(=O)[C@@H]1CCCN1C(=O)[C@H](CC(=O)O)NC(=O)[C@H](Cc1ccccc1)NC(=O)[C@@H]1CCCN1C(=O)[C@H](Cc1ccccc1)NC(=O)CNC(=O)[C@@H](NC(=O)CNC(=O)[C@H](CCCNC(=N)N)NC(=O)[C@H](CCC(=O)O)NC(=O)CCCC[C@@H]1SC[C@@H]2NC(=O)N[C@@H]21)[C@@H](C)O)C(C)C)C(C)C)C(C)C)C(C)C)C(=O)N[C@@H](CO)C(=O)O` [HaloTag[3-19](I2R)-VSHiBiT] (Biotin-ERGTGFPFDPHYVEVLGVSVSGWRLFKKIS-OH), in assay [1], the Kd amounted to 0.713 nM.
Turning to `CC[C@H](C)[C@H](NC(=O)[C@H](CCC(=O)O)NC(=O)CCCC[C@@H]1SC[C@@H]2NC(=O)N[C@@H]21)C(=O)NCC(=O)N[C@H](C(=O)NCC(=O)N[C@@H](Cc1ccccc1)C(=O)N1CCC[C@H]1C(=O)N[C@@H](Cc1ccccc1)C(=O)N[C@@H](CCCNC(=N)N)C(=O)N1CCC[C@H]1C(=O)N[C@@H](Cc1c[nH]cn1)C(=O)N[C@@H](Cc1ccc(O)cc1)C(=O)N[C@H](C(=O)N[C@@H](CCCCN)C(=O)N[C@H](C(=O)N[C@@H](CC(C)C)C(=O)NCC(=O)NCC(=O)NCC(=O)N[C@@H](CO)C(=O)NCC(=O)N[C@H](C(=O)N[C@@H](CO)C(=O)N[C@H](C(=O)N[C@@H](CO)C(=O)NCC(=O)N[C@@H](Cc1c[nH]c2ccccc12)C(=O)N[C@@H](CCCNC(=N)N)C(=O)N[C@@H](CC(C)C)C(=O)N[C@@H](Cc1ccccc1)C(=O)N[C@@H](CCCCN)C(=O)N[C@@H](CCCCN)C(=O)N[C@H](C(=O)N[C@@H](CO)C(=O)O)[C@@H](C)CC)C(C)C)C(C)C)C(C)C)C(C)C)[C@@H](C)O` [HaloTag[3-19](D9R + E14K)-4xGS-VSHiBiT] (Biotin-EIGTGFPFRPHYVKVLGGGSGVSVSGWRLFKKIS-OH), the Kd in assay [2] is 0.111 nM.
“EIKTGFPFDPHYVEVRGGGSGVSVSGWRLFKKIS [HaloTag[3-19](G3K + L16R)-4xGS-VSHiBiT]”: in assay [2], the Koff result is listed as “NA (dissociation that is too slow for the instrument to measure (limit 10^6 l/s))” and the Kon was 97100 M⁻¹ s⁻¹.
In turn, `CC[C@H](C)[C@H](NC(=O)[C@H](CCCCN)NC(=O)[C@H](CCCCN)NC(=O)[C@H](Cc1ccccc1)NC(=O)[C@H](CC(C)C)NC(=O)[C@H](CCCNC(=N)N)NC(=O)[C@H](Cc1c[nH]c2ccccc12)NC(=O)CNC(=O)[C@H](CO)NC(=O)[C@@H](NC(=O)[C@H](CO)NC(=O)[C@@H](NC(=O)CNC(=O)[C@H](CO)NC(=O)CNC(=O)CNC(=O)CNC(=O)[C@H](CC(C)C)NC(=O)[C@@H](NC(=O)[C@H](CCC(=O)O)NC(=O)[C@@H](NC(=O)[C@H](Cc1ccc(O)cc1)NC(=O)[C@H](Cc1c[nH]cn1)NC(=O)[C@@H]1CCCN1C(=O)[C@H](CC(=O)O)NC(=O)[C@H](Cc1ccccc1)NC(=O)[C@@H]1CCCN1C(=O)[C@H](Cc1ccccc1)NC(=O)[C@H](CCCNC(=N)N)NC(=O)[C@@H](NC(=O)CNC(=O)[C@H](CCCNC(=N)N)NC(=O)[C@H](CCC(=O)O)NC(=O)CCCC[C@@H]1SC[C@@H]2NC(=O)N[C@@H]21)[C@@H](C)O)C(C)C)C(C)C)C(C)C)C(C)C)C(=O)N[C@@H](CO)C(=O)O` [HaloTag[3-19](I2R + G5R)-4xGS-VSHiBiT] (Biotin-ERGTRFPFDPHYVEVLGGGSGVSVSGWRLFKKIS-OH) gave a dissociation constant Kd on LgBiT-6xHis of 0.11 nM.
For the compound `CC[C@H](C)[C@H](NC(=O)[C@H](CCC(=O)O)NC(=O)CCCC[C@@H]1SC[C@@H]2NC(=O)N[C@@H]21)C(=O)NCC(=O)N[C@H](C(=O)NCC(=O)N[C@@H](Cc1ccccc1)C(=O)N1CCC[C@H]1C(=O)N[C@@H](Cc1ccccc1)C(=O)N[C@@H](CCCNC(=N)N)C(=O)N1CCC[C@H]1C(=O)N[C@@H](Cc1c[nH]cn1)C(=O)N[C@@H](Cc1ccc(O)cc1)C(=O)N[C@H](C(=O)N[C@@H](CCC(=O)O)C(=O)N[C@H](C(=O)N[C@@H](CC(C)C)C(=O)NCC(=O)NCC(=O)NCC(=O)N[C@@H](CO)C(=O)NCC(=O)N[C@H](C(=O)N[C@@H](CO)C(=O)N[C@H](C(=O)N[C@@H](CO)C(=O)NCC(=O)N[C@@H](Cc1c[nH]c2ccccc12)C(=O)N[C@@H](CCCNC(=N)N)C(=O)N[C@@H](CC(C)C)C(=O)N[C@@H](Cc1ccccc1)C(=O)N[C@@H](CCCCN)C(=O)N[C@@H](CCCCN)C(=O)N[C@H](C(=O)N[C@@H](CO)C(=O)O)[C@@H](C)CC)C(C)C)C(C)C)C(C)C)C(C)C)[C@@H](C)O` [HaloTag[3-19](D9R)-4xGly/Ser-VSHiBiT] (Biotin-EIGTGFPFRPHYVEVLGGGSGVSVSGWRLFKKIS-OH), in assay [2], the Kd worked out at 0.126 nM.
On to “EIGTGFPFDPHYVEVRGGGSGVSVSGWRLFKKIS [HaloTag[3-19](L16R)-4xGly/Ser-VSHiBiT]”, for which, in assay [2], the Koff entry was “NA (dissociation that is too slow for the instrument to measure (limit 10^6 l/s))” and the Kon stood at 77900 M⁻¹ s⁻¹.
`CC[C@H](C)[C@H](NC(=O)[C@H](CCCCN)NC(=O)[C@H](CCCCN)NC(=O)[C@H](Cc1ccccc1)NC(=O)[C@H](CC(C)C)NC(=O)[C@H](CCCNC(=N)N)NC(=O)[C@H](Cc1c[nH]c2ccccc12)NC(=O)CNC(=O)[C@H](CO)NC(=O)[C@@H](NC(=O)[C@H](CO)NC(=O)[C@@H](NC(=O)CNC(=O)[C@H](CO)NC(=O)CNC(=O)CNC(=O)CNC(=O)[C@H](CC(C)C)NC(=O)[C@@H](NC(=O)[C@H](CCC(=O)O)NC(=O)[C@@H](NC(=O)[C@H](Cc1ccc(O)cc1)NC(=O)[C@H](Cc1c[nH]cn1)NC(=O)[C@@H]1CCCN1C(=O)[C@H](CC(=O)O)NC(=O)[C@H](Cc1ccccc1)NC(=O)[C@@H]1CCCN1C(=O)[C@H](Cc1ccccc1)NC(=O)CNC(=O)[C@@H](NC(=O)[C@H](CCCCN)NC(=O)[C@H](CCCNC(=N)N)NC(=O)[C@H](CCC(=O)O)NC(=O)CCCC[C@@H]1SC[C@@H]2NC(=O)N[C@@H]21)[C@@H](C)O)C(C)C)C(C)C)C(C)C)C(C)C)C(=O)N[C@@H](CO)C(=O)O` [HaloTag[3-19](I2R + G3K)-4xGS-VSHiBiT] (Biotin-ERKTGFPFDPHYVEVLGGGSGVSVSGWRLFKKIS-OH) came in with a dissociation constant Kd on LgBiT-6xHis of 0.323 nM.
For the compound ERGTGFPFDPHYVEVLGGGSGVSVSGWRLFRRIS, in assay [1] (setting [3]), the Koff entry is “NA (dissociation that is too slow for the instrument to measure (limit 10^6 l/s))” and the Kon stood at 71400 M⁻¹ s⁻¹.
